According to the supplement of paper PMC7125110:
± gives the standard error. This sample holds only a part of the variants without activity.

B1: glmS ribozyme (parent)
chain: AUAAAAGCGCCAGAACUACAGAAAUGUAGUUGACGAGGAGGAGGUUUAUCGAAUUUUCGGCGGAUGCCUCCAAA

Experiments:
Details in all cases: with glucosamine-6-phosphate
glucosamine-6-phosphate [1] = variants of: B1; assay: self-cleavage kobs at 40 uM GlcN6P; higher = faster cleavage; RNA array
In short: (§1)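 Tiles bearing barcoded ribozyme variants, transcribed in situ by E. coli RNA polymerase on sequenced MiSeq chips, were imaged over ~14 h at 37 °C using a hybridised Cy3 probe. Glucosamine-6-phosphate was supplied at 40 μM to 10 mM in HEPES/KCl/Mg(OAc)2 buffer. kobs came from one- or two-exponential decay fits to normalised per-tile medians, and weighted Michaelis–Menten fits then provided kcat and KM.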

glucosamine-6-phosphate [2] = variants of: B1; assay: self-cleavage kobs at 160 uM GlcN6P; higher = faster cleavage; RNA array
In short: as §1

glucosamine-6-phosphate [3] = variants of: B1; assay: self-cleavage kobs at 640 uM GlcN6P; higher = faster cleavage; RNA array
In short: as §1

glucosamine-6-phosphate [4] = variants of: B1; assay: self-cleavage kobs at 2500 uM GlcN6P; higher = faster cleavage; RNA array
In short: as §1

glucosamine-6-phosphate [5] = variants of: B1; assay: self-cleavage kobs at 10000 uM GlcN6P; higher = faster cleavage; RNA array
In short: as §1

Variant	self-cleavage kobs at 40 uM GlcN6P (glucosamine-6-phosphate [1])	self-cleavage kobs at 160 uM GlcN6P (glucosamine-6-phosphate [2])	self-cleavage kobs at 640 uM GlcN6P (glucosamine-6-phosphate [3])	self-cleavage kobs at 2500 uM GlcN6P (glucosamine-6-phosphate [4])	self-cleavage kobs at 10000 uM GlcN6P (glucosamine-6-phosphate [5])
G7C A42G	< 1e-05 s⁻¹	< 1e-05 s⁻¹	< 1e-05 s⁻¹	< 1e-05 s⁻¹	< 1e-05 s⁻¹
G37A C68A	< 1e-05 s⁻¹	< 1e-05 s⁻¹	< 1e-05 s⁻¹	< 1e-05 s⁻¹	< 1e-05 s⁻¹
A6U G35U A39G C71A	< 1e-05 s⁻¹	–	–	–	< 1e-05 s⁻¹
A52U C58U	< 1e-05 s⁻¹	< 1e-05 s⁻¹	< 1e-05 s⁻¹	< 1e-05 s⁻¹	< 1e-05 s⁻¹
G41U C50A	< 1e-05 s⁻¹	< 1e-05 s⁻¹	< 1e-05 s⁻¹	< 1e-05 s⁻¹	< 1e-05 s⁻¹
A33U G35U	< 1e-05 s⁻¹	–	< 1e-05 s⁻¹	< 1e-05 s⁻¹	< 1e-05 s⁻¹
A6G U31A G44U C67G	< 1e-05 s⁻¹	–	< 1e-05 s⁻¹	–	–
G41A U69A	< 1e-05 s⁻¹	–	< 1e-05 s⁻¹	–	–
U46A C50G	< 1e-05 s⁻¹	–	–	< 1e-05 s⁻¹	< 1e-05 s⁻¹
U30C G40C U49G G51A	< 1e-05 s⁻¹	–	–	–	< 1e-05 s⁻¹
G13C U45C	< 1e-05 s⁻¹	< 1e-05 s⁻¹	< 1e-05 s⁻¹	< 1e-05 s⁻¹	–
G37U G38A A42C	< 1e-05 s⁻¹	–	< 1e-05 s⁻¹	< 1e-05 s⁻¹	< 1e-05 s⁻¹
C10G A36G	< 1e-05 s⁻¹	–	< 1e-05 s⁻¹	–	< 1e-05 s⁻¹
A48C G59U C67A	< 1e-05 s⁻¹	–	–	–	–
A14C C68U C71U	< 1e-05 s⁻¹	–	–	–	–
C58U G60A	< 1e-05 s⁻¹	–	< 1e-05 s⁻¹	< 1e-05 s⁻¹	< 1e-05 s⁻¹
U31G G38U C61U C71U	< 1e-05 s⁻¹	–	–	–	–
C16G G35C	< 1e-05 s⁻¹	–	< 1e-05 s⁻¹	< 1e-05 s⁻¹	< 1e-05 s⁻¹
C11U C61G U69C	9.12e-05 ± 2.3e-05 s⁻¹	–	–	–	4.04e-05 ± 1.7e-05 s⁻¹
A14U G62C	< 1e-05 s⁻¹	–	–	< 1e-05 s⁻¹	–
G41C C61U	< 1e-05 s⁻¹	< 1e-05 s⁻¹	< 1e-05 s⁻¹	< 1e-05 s⁻¹	< 1e-05 s⁻¹

Variant	self-cleavage kobs at 40 uM GlcN6P (glucosamine-6-phosphate [1])	self-cleavage kobs at 160 uM GlcN6P (glucosamine-6-phosphate [2])	self-cleavage kobs at 640 uM GlcN6P (glucosamine-6-phosphate [3])	self-cleavage kobs at 2500 uM GlcN6P (glucosamine-6-phosphate [4])	self-cleavage kobs at 10000 uM GlcN6P (glucosamine-6-phosphate [5])
A53G C70U	0.00158 ± 0.00015 s⁻¹	0.00129 ± 0.00027 s⁻¹	0.0139 ± 0.0036 s⁻¹	–	0.0616 ± 0.014 s⁻¹
C10G G32U C58A C70G	5.06e-05 ± 1.8e-05 s⁻¹	–	–	–	–
G29A G59U G63A A64U	< 1e-05 s⁻¹	–	–	–	< 1e-05 s⁻¹
A12U U54A	0.00273 ± 0.00049 s⁻¹	0.00304 ± 0.00084 s⁻¹	0.0221 ± 0.0044 s⁻¹	0.0233 ± 0.0078 s⁻¹	0.121 ± 0.059 s⁻¹
C11U C16A G44C	< 1e-05 s⁻¹	–	< 1e-05 s⁻¹	–	–
G29A G43A	< 1e-05 s⁻¹	< 1e-05 s⁻¹	< 1e-05 s⁻¹	< 1e-05 s⁻¹	–
C16A A42U G63U	< 1e-05 s⁻¹	–	< 1e-05 s⁻¹	< 1e-05 s⁻¹	–
A48U C50U A52C G63C C71U	< 1e-05 s⁻¹	–	–	–	–
C50G C68A	7.16e-05 ± 9.2e-06 s⁻¹	0.000228 ± 3.1e-05 s⁻¹	0.000137 ± 2.4e-05 s⁻¹	0.000116 ± 2.1e-05 s⁻¹	7.83e-05 ± 8.2e-06 s⁻¹
G37C G63A	< 1e-05 s⁻¹	–	< 1e-05 s⁻¹	< 1e-05 s⁻¹	< 1e-05 s⁻¹
A14G U54A G59A	< 1e-05 s⁻¹	–	–	8.37e-05 ± 2.7e-05 s⁻¹	0.000121 ± 3.2e-05 s⁻¹
U47A U55G	0.000473 ± 8.1e-05 s⁻¹	0.000805 ± 0.00018 s⁻¹	0.00869 ± 0.0018 s⁻¹	0.0105 ± 0.0022 s⁻¹	0.0152 ± 0.0031 s⁻¹
A36C C50G C70U	0.000435 ± 0.00014 s⁻¹	–	–	0.00027 ± 0.0001 s⁻¹	0.000831 ± 0.00026 s⁻¹
G35C C58A G62U	< 1e-05 s⁻¹	–	–	–	–
A6U C8A	< 1e-05 s⁻¹	< 1e-05 s⁻¹	–	< 1e-05 s⁻¹	< 1e-05 s⁻¹
G37A G51A	< 1e-05 s⁻¹	–	< 1e-05 s⁻¹	–	< 1e-05 s⁻¹
G7C G29C	< 1e-05 s⁻¹	–	< 1e-05 s⁻¹	< 1e-05 s⁻¹	< 1e-05 s⁻¹
A12C U49C U56G C58G	< 1e-05 s⁻¹	–	< 1e-05 s⁻¹	–	< 1e-05 s⁻¹
U54A C67A	0.000554 ± 0.00013 s⁻¹	0.000242 ± 4.9e-05 s⁻¹	0.00148 ± 0.00034 s⁻¹	0.00137 ± 0.00037 s⁻¹	0.00561 ± 0.0016 s⁻¹
U31G C34U G59A	< 1e-05 s⁻¹	–	< 1e-05 s⁻¹	< 1e-05 s⁻¹	< 1e-05 s⁻¹
